# Measurements: the supplement of paper PMC7125110
# ± gives the standard error. For some assays here: Fewer inactive variants are shown than the library holds.
# B1: glmS ribozyme (parent)
# chain: AUAAAAGCGCCAGAACUACAGAAAUGUAGUUGACGAGGAGGAGGUUUAUCGAAUUUUCGGCGGAUGCCUCCAAA
# What was measured:
# Details in all cases: with glucosamine-6-phosphate
# glucosamine-6-phosphate [1] = variants of: B1; experiment: kcat; higher = faster cleavage; RNA array
# Outline: (§1)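 Using a hybridised Cy3 probe at 37 °C, barcoded ribozyme variants transcribed in situ by E. coli RNA polymerase on sequenced MiSeq chips were monitored across tiles imaged over ~14 h. The flow contained glucosamine-6-phosphate from 40 μM to 10 mM in HEPES/KCl/Mg(OAc)2 buffer. Signals were normalised to baseline and to non-cleaving reference variants before per-tile medians were fit to one- or two-exponential decays to yield kobs. Weighted Michaelis–Menten fits across concentrations gave kcat and KM.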
# glucosamine-6-phosphate [2] = variants of: B1; experiment: self-cleavage kobs at 160 uM GlcN6P; higher = faster cleavage; RNA array
# Outline: as §1
# glucosamine-6-phosphate [3] = variants of: B1; experiment: self-cleavage kobs at 2500 uM GlcN6P; higher = faster cleavage; RNA array
# Outline: as §1
# glucosamine-6-phosphate [4] = variants of: B1; experiment: self-cleavage kobs at 10000 uM GlcN6P; higher = faster cleavage; RNA array
# Outline: as §1
# glucosamine-6-phosphate [5] = variants of: B1; experiment: KM; higher = weaker cofactor use; RNA array
# Outline: as §1
# glucosamine-6-phosphate [6] = variants of: B1; experiment: self-cleavage kobs at 40 uM GlcN6P; higher = faster cleavage; RNA array
# Outline: as §1
# glucosamine-6-phosphate [7] = variants of: B1; experiment: self-cleavage kobs at 640 uM GlcN6P; higher = faster cleavage; RNA array
# Outline: as §1
Variant,kcat (glucosamine-6-phosphate [1]),self-cleavage kobs at 160 uM GlcN6P (glucosamine-6-phosphate [2]),self-cleavage kobs at 2500 uM GlcN6P (glucosamine-6-phosphate [3]),self-cleavage kobs at 10000 uM GlcN6P (glucosamine-6-phosphate [4]),KM (glucosamine-6-phosphate [5]),self-cleavage kobs at 40 uM GlcN6P (glucosamine-6-phosphate [6]),self-cleavage kobs at 640 uM GlcN6P (glucosamine-6-phosphate [7])
A15G G43U,4.47e-05 ± 6.5e-06 s⁻¹,< 1e-05 s⁻¹,4.65e-05 ± 9.7e-06 s⁻¹,4e-05 ± 5.6e-06 s⁻¹,–,–,–
A15U A53G,0.00765 ± 0.0013 s⁻¹,0.000531 ± 6.8e-05 s⁻¹,0.00373 ± 0.00055 s⁻¹,0.00681 ± 0.00053 s⁻¹,1990 ± 520 µM,0.00019 ± 1.8e-05 s⁻¹,0.0015 ± 0.0002 s⁻¹
A14U G40C,0.000633 ± 5.1e-05 s⁻¹,5.2e-05 ± 9.2e-06 s⁻¹,0.000391 ± 4.2e-05 s⁻¹,0.000522 ± 3.7e-05 s⁻¹,1980 ± 320 µM,2.05e-05 ± 9e-06 s⁻¹,0.000142 ± 1.5e-05 s⁻¹
A14U G40A,0.0018 ± 0.0003 s⁻¹,–,–,0.00161 ± 0.00021 s⁻¹,1500 ± 450 µM,4.43e-05 ± 1e-05 s⁻¹,0.000643 ± 0.00013 s⁻¹
C16A G40A,0.000202 ± 6.3e-05 s⁻¹,–,0.000155 ± 2.1e-05 s⁻¹,0.000154 ± 2.9e-05 s⁻¹,–,–,–
A15U A52U,0.000143 ± 1.2e-05 s⁻¹,–,9.15e-05 ± 9.9e-06 s⁻¹,0.000119 ± 1.5e-05 s⁻¹,1610 ± 370 µM,< 1e-05 s⁻¹,3.6e-05 ± 1e-05 s⁻¹
A15G G32C C67G,1.35e-05 ± 1.1e-06 s⁻¹,–,–,–,–,–,–
A15C U57G,2.37e-05 ± 5.5e-06 s⁻¹,< 1e-05 s⁻¹,–,–,–,< 1e-05 s⁻¹,–
A15U G44U U47G C67G,0.000544 ± 0.00017 s⁻¹,–,0.000563 ± 9.9e-05 s⁻¹,0.000418 ± 9.9e-05 s⁻¹,–,–,0.000193 ± 3.9e-05 s⁻¹
C16A G62A,< 1e-05 s⁻¹,< 1e-05 s⁻¹,–,–,–,–,–
C16A G51A U56G C68G,1.58e-05 ± 2.3e-06 s⁻¹,–,–,–,–,–,–
A15G U46A,0.00453 ± 0.00029 s⁻¹,0.0003 ± 9.6e-05 s⁻¹,0.00258 ± 0.00041 s⁻¹,0.00382 ± 0.00063 s⁻¹,1890 ± 170 µM,9.83e-05 ± 1.5e-05 s⁻¹,0.00114 ± 0.00035 s⁻¹
A15G U46G,0.00908 ± 0.00054 s⁻¹,0.000667 ± 0.0001 s⁻¹,0.00538 ± 0.00091 s⁻¹,0.00757 ± 0.00068 s⁻¹,2020 ± 170 µM,0.000184 ± 2e-05 s⁻¹,0.00198 ± 0.00026 s⁻¹
A15U C61A,< 1e-05 s⁻¹,–,–,–,829 ± 70 µM,< 1e-05 s⁻¹,–
A14U G29A,0.00088 ± 5.1e-05 s⁻¹,4.16e-05 ± 1e-05 s⁻¹,0.000368 ± 5.1e-05 s⁻¹,0.000665 ± 0.00011 s⁻¹,3420 ± 290 µM,–,0.000137 ± 1.7e-05 s⁻¹
A14U G41U,0.000307 ± 3.4e-05 s⁻¹,4.48e-05 ± 7.9e-06 s⁻¹,0.000292 ± 5.4e-05 s⁻¹,0.000271 ± 3.1e-05 s⁻¹,1010 ± 220 µM,–,0.000109 ± 1.4e-05 s⁻¹

Variant,kcat (glucosamine-6-phosphate [1]),self-cleavage kobs at 160 uM GlcN6P (glucosamine-6-phosphate [2]),self-cleavage kobs at 2500 uM GlcN6P (glucosamine-6-phosphate [3]),self-cleavage kobs at 10000 uM GlcN6P (glucosamine-6-phosphate [4]),KM (glucosamine-6-phosphate [5]),self-cleavage kobs at 40 uM GlcN6P (glucosamine-6-phosphate [6]),self-cleavage kobs at 640 uM GlcN6P (glucosamine-6-phosphate [7])
A15G C16A C70U,0.000398 ± 6.7e-05 s⁻¹,6.78e-05 ± 2.4e-05 s⁻¹,0.000315 ± 6.5e-05 s⁻¹,–,804 ± 260 µM,–,0.000168 ± 2.9e-05 s⁻¹
C16A C67A,0.000254 ± 2.7e-05 s⁻¹,6.97e-05 ± 1.3e-05 s⁻¹,0.00021 ± 3.3e-05 s⁻¹,0.000248 ± 2.9e-05 s⁻¹,598 ± 150 µM,–,0.000123 ± 1.2e-05 s⁻¹
C16A C61G,1.13e-05 ± 1.7e-08 s⁻¹,–,–,–,158.6 ± 1.5 µM,–,–
A15C C70A,6.11e-05 ± 1.2e-05 s⁻¹,3.37e-05 ± 1.6e-05 s⁻¹,9.56e-05 ± 1.5e-05 s⁻¹,4.95e-05 ± 8.2e-06 s⁻¹,–,–,5.56e-05 ± 1.2e-05 s⁻¹
A14U U65A,0.0015 ± 0.00017 s⁻¹,4.54e-05 ± 1.3e-05 s⁻¹,0.000449 ± 0.00012 s⁻¹,0.00105 ± 0.00012 s⁻¹,4460 ± 760 µM,–,0.000203 ± 2.7e-05 s⁻¹
A15G G29U,0.00177 ± 0.00076 s⁻¹,0.000104 ± 4.4e-05 s⁻¹,0.00118 ± 0.00039 s⁻¹,0.00145 ± 0.00039 s⁻¹,–,6.06e-05 ± 1.7e-05 s⁻¹,0.000265 ± 0.0001 s⁻¹
A15U U57G C58U C70A,6.42e-05 ± 1.8e-05 s⁻¹,4.86e-05 ± 1.7e-05 s⁻¹,7.42e-05 ± 2e-05 s⁻¹,–,–,–,9.48e-05 ± 3.5e-05 s⁻¹
A15C U56A,0.00477 ± 0.0013 s⁻¹,–,0.00218 ± 0.0005 s⁻¹,0.00482 ± 0.0008 s⁻¹,1930 ± 760 µM,0.000113 ± 1.7e-05 s⁻¹,0.00107 ± 0.00016 s⁻¹
A15C U56C,0.00118 ± 0.00019 s⁻¹,8.66e-05 ± 1.7e-05 s⁻¹,0.000708 ± 9.2e-05 s⁻¹,0.000914 ± 9.9e-05 s⁻¹,2470 ± 690 µM,–,0.000202 ± 3.2e-05 s⁻¹
C16A A33U,1.2e-05 ± 3e-06 s⁻¹,< 1e-05 s⁻¹,–,–,–,< 1e-05 s⁻¹,–
A14U U46G,0.0012 ± 0.00012 s⁻¹,9.07e-05 ± 2.1e-05 s⁻¹,0.000548 ± 0.0001 s⁻¹,0.00104 ± 0.00012 s⁻¹,2150 ± 380 µM,1.98e-05 ± 6.9e-06 s⁻¹,0.000293 ± 4.6e-05 s⁻¹
C16A G29A,0.00235 ± 0.00058 s⁻¹,0.000175 ± 3.3e-05 s⁻¹,0.00127 ± 0.00024 s⁻¹,0.00227 ± 0.00042 s⁻¹,1790 ± 630 µM,7.39e-05 ± 1.3e-05 s⁻¹,0.000549 ± 9.9e-05 s⁻¹
A14U G38C,< 1e-05 s⁻¹,–,< 1e-05 s⁻¹,< 1e-05 s⁻¹,–,< 1e-05 s⁻¹,< 1e-05 s⁻¹
C16A C68U,9.12e-05 ± 2.9e-06 s⁻¹,–,6.55e-05 ± 6.5e-06 s⁻¹,8.53e-05 ± 7.2e-06 s⁻¹,878 ± 110 µM,–,3.93e-05 ± 7.5e-06 s⁻¹
A15C A53C,0.00123 ± 0.00037 s⁻¹,5.14e-05 ± 1.6e-05 s⁻¹,0.000472 ± 0.00011 s⁻¹,0.00102 ± 0.00019 s⁻¹,2900 ± 1400 µM,2.74e-05 ± 1.3e-05 s⁻¹,0.000308 ± 6e-05 s⁻¹
